Laboratory results reported in the supplement of paper PMC10724198.
± gives the standard deviation of the averaged measurements.

Experiments:
Saccharomyces cerevisiae [1] = assay: protein stability index of tFT-peptide fusion (C-terminal peptide) (PSI (0-1 scale)); higher = more stable (slower turnover)
Description: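 MPS profiling in S. cerevisiae of the tFT-X12 degron library: putative degron peptides plus stable controls, 12 aa, fused to the C-terminus of a sfGFP-mCherry timer. Cells are FACS-sorted into 8 mCherry/sfGFP bins and deep-sequenced. PSI runs from 0 (unstable) to 1 (stable). Backgrounds are wild type, das1Δ and doa10Δ at 30 °C, and wild type, das1Δ, cdc34-1 and cdc53-1 at 37 °C; 2-3 technical replicates each.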

Saccharomyces cerevisiae [2] = assay: as above; settings: genetic background: wild type; temperature: 30 C
[3] = genetic background: cdc34-1, temperature: 37 C
[4] = genetic background: cdc53-1, temperature: 37 C
[5] = genetic background: das1 deletion, temperature: 30 C
[6] = genetic background: das1 deletion, temperature: 37 C
[7] = genetic background: doa10 deletion, temperature: 30 C
[8] = genetic background: wild type, temperature: 30 C
[9] = genetic background: wild type, temperature: 37 C
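Further: PSI is a weighted mean of sequencing reads over stability bins, variants kept only with over 10 reads, mCherry proximal and sfGFP distal, peptide attached via GGGS linker.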

FFALFLPLACFC
protein stability index (Saccharomyces cerevisiae [1]; [3]): 0.4689 ± 0.0012 | protein stability index (Saccharomyces cerevisiae [1]; [4]): 0.4432 ± 0.004 | protein stability index (Saccharomyces cerevisiae [1]; [5]): 0.38 ± 0.031 | protein stability index (Saccharomyces cerevisiae [1]; [6]): 0.4899 ± 0.0037 | protein stability index (Saccharomyces cerevisiae [1]; [7]): 0.353 ± 0.023 | protein stability index (Saccharomyces cerevisiae [1]; [8]): 0.386 ± 0.014 | protein stability index (Saccharomyces cerevisiae [1]; [9]): 0.455 ± 0.0076 | protein stability index (Saccharomyces cerevisiae [2]): 0.429 ± 0.013

LWGVGRQRNIAS
protein stability index (Saccharomyces cerevisiae [1]; [3]): 0.684 ± 0.033 | protein stability index (Saccharomyces cerevisiae [1]; [4]): 0.758 ± 0.015 | protein stability index (Saccharomyces cerevisiae [1]; [5]): 0.655 ± 0.038 | protein stability index (Saccharomyces cerevisiae [1]; [6]): 0.769 ± 0.021 | protein stability index (Saccharomyces cerevisiae [1]; [7]): 0.291 ± 0.036 | protein stability index (Saccharomyces cerevisiae [1]; [8]): 0.304 ± 0.018 | protein stability index (Saccharomyces cerevisiae [1]; [9]): 0.582 ± 0.021 | protein stability index (Saccharomyces cerevisiae [2]): 0.41 ± 0.013

LGKSTLYMALNN
protein stability index (Saccharomyces cerevisiae [1]; [3]): 0.587 ± 0.057 | protein stability index (Saccharomyces cerevisiae [1]; [4]): 0.716 ± 0.036 | protein stability index (Saccharomyces cerevisiae [1]; [5]): 0.611 ± 0.011 | protein stability index (Saccharomyces cerevisiae [1]; [6]): 0.695 ± 0.017 | protein stability index (Saccharomyces cerevisiae [1]; [7]): 0.273 ± 0.013 | protein stability index (Saccharomyces cerevisiae [1]; [8]): 0.309 ± 0.038 | protein stability index (Saccharomyces cerevisiae [1]; [9]): 0.571 ± 0.11 | protein stability index (Saccharomyces cerevisiae [2]): 0.402 ± 0.047

GSLHVISVVGML
protein stability index (Saccharomyces cerevisiae [1]; [3]): 0.696 ± 0.012 | protein stability index (Saccharomyces cerevisiae [1]; [4]): 0.709 ± 0.019 | protein stability index (Saccharomyces cerevisiae [1]; [5]): 0.592 ± 0.016 | protein stability index (Saccharomyces cerevisiae [1]; [6]): 0.695 ± 0.018 | protein stability index (Saccharomyces cerevisiae [1]; [7]): 0.393 ± 0.0045 | protein stability index (Saccharomyces cerevisiae [1]; [8]): 0.439 ± 0.018 | protein stability index (Saccharomyces cerevisiae [1]; [9]): 0.595 ± 0.014 | protein stability index (Saccharomyces cerevisiae [2]): 0.52 ± 0.034

VLVLLVCVAALV
protein stability index (Saccharomyces cerevisiae [1]; [3]): 0.1393 ± 0.00032 | protein stability index (Saccharomyces cerevisiae [1]; [4]): 0.222 ± 0.0053 | protein stability index (Saccharomyces cerevisiae [1]; [5]): 0.163 ± 0.023 | protein stability index (Saccharomyces cerevisiae [1]; [6]): 0.295 ± 0.017 | protein stability index (Saccharomyces cerevisiae [1]; [7]): 0.1463 ± 0.00088 | protein stability index (Saccharomyces cerevisiae [1]; [8]): 0.163 ± 0.025 | protein stability index (Saccharomyces cerevisiae [1]; [9]): 0.244 ± 0.014 | protein stability index (Saccharomyces cerevisiae [2]): 0.239 ± 0.0026

FSFCFCFPLSSL
protein stability index (Saccharomyces cerevisiae [1]; [3]): 0.5603 ± 0.0013 | protein stability index (Saccharomyces cerevisiae [1]; [4]): 0.683 ± 0.053 | protein stability index (Saccharomyces cerevisiae [1]; [5]): 0.528 ± 0.018 | protein stability index (Saccharomyces cerevisiae [1]; [6]): 0.6285 ± 0.0038 | protein stability index (Saccharomyces cerevisiae [1]; [7]): 0.209 ± 0.011 | protein stability index (Saccharomyces cerevisiae [1]; [8]): 0.248 ± 0.013 | protein stability index (Saccharomyces cerevisiae [1]; [9]): 0.407 ± 0.015 | protein stability index (Saccharomyces cerevisiae [2]): 0.301 ± 0.0084

DALHPCIIYLTC
protein stability index (Saccharomyces cerevisiae [1]; [3]): 0.594 ± 0.049 | protein stability index (Saccharomyces cerevisiae [1]; [4]): 0.565 ± 0.015 | protein stability index (Saccharomyces cerevisiae [1]; [5]): 0.328 ± 0.035 | protein stability index (Saccharomyces cerevisiae [1]; [6]): 0.609 ± 0.00096 | protein stability index (Saccharomyces cerevisiae [1]; [7]): 0.217 ± 0.0055 | protein stability index (Saccharomyces cerevisiae [1]; [8]): 0.254 ± 0.022 | protein stability index (Saccharomyces cerevisiae [1]; [9]): 0.466 ± 0.013 | protein stability index (Saccharomyces cerevisiae [2]): 0.341 ± 0.013

VFFFVSFFAFSS
protein stability index (Saccharomyces cerevisiae [1]; [3]): 0.213 ± 0.0054 | protein stability index (Saccharomyces cerevisiae [1]; [4]): 0.3558 ± 0.0034 | protein stability index (Saccharomyces cerevisiae [1]; [5]): 0.22 ± 0.029 | protein stability index (Saccharomyces cerevisiae [1]; [6]): 0.406 ± 0.0024 | protein stability index (Saccharomyces cerevisiae [1]; [7]): 0.172 ± 0.016 | protein stability index (Saccharomyces cerevisiae [1]; [8]): 0.179 ± 0.04 | protein stability index (Saccharomyces cerevisiae [1]; [9]): 0.3544 ± 0.0014 | protein stability index (Saccharomyces cerevisiae [2]): 0.288 ± 0.053

RLPVMFWFVCSF
protein stability index (Saccharomyces cerevisiae [1]; [3]): 0.561 ± 0.053 | protein stability index (Saccharomyces cerevisiae [1]; [4]): 0.641 ± 0.024 | protein stability index (Saccharomyces cerevisiae [1]; [5]): 0.477 ± 0.026 | protein stability index (Saccharomyces cerevisiae [1]; [6]): 0.6288 ± 0.0029 | protein stability index (Saccharomyces cerevisiae [1]; [7]): 0.47 ± 0.038 | protein stability index (Saccharomyces cerevisiae [1]; [8]): 0.466 ± 0.026 | protein stability index (Saccharomyces cerevisiae [1]; [9]): 0.638 ± 0.055 | protein stability index (Saccharomyces cerevisiae [2]): 0.506 ± 0.042

YLLTAFLSAFNP
protein stability index (Saccharomyces cerevisiae [1]; [3]): 0.554 ± 0.054 | protein stability index (Saccharomyces cerevisiae [1]; [4]): 0.683 ± 0.018 | protein stability index (Saccharomyces cerevisiae [1]; [5]): 0.543 ± 0.019 | protein stability index (Saccharomyces cerevisiae [1]; [6]): 0.55 ± 0.0074 | protein stability index (Saccharomyces cerevisiae [1]; [7]): 0.529 ± 0.041 | protein stability index (Saccharomyces cerevisiae [1]; [8]): 0.522 ± 0.031 | protein stability index (Saccharomyces cerevisiae [1]; [9]): 0.537 ± 0.02 | protein stability index (Saccharomyces cerevisiae [2]): 0.495 ± 0.11

SPTRTCTAIRTP
protein stability index (Saccharomyces cerevisiae [1]; [3]): 0.689 ± 0.068 | protein stability index (Saccharomyces cerevisiae [1]; [4]): 0.7392 ± 0.0058 | protein stability index (Saccharomyces cerevisiae [1]; [5]): 0.666 ± 0.022 | protein stability index (Saccharomyces cerevisiae [1]; [6]): 0.708 ± 0.0022 | protein stability index (Saccharomyces cerevisiae [1]; [7]): 0.683 ± 0.057 | protein stability index (Saccharomyces cerevisiae [1]; [8]): 0.676 ± 0.027 | protein stability index (Saccharomyces cerevisiae [1]; [9]): 0.671 ± 0.0068 | protein stability index (Saccharomyces cerevisiae [2]): 0.712 ± 0.034

IIPAFPFAFLAF
protein stability index (Saccharomyces cerevisiae [1]; [3]): 0.527 ± 0.0088 | protein stability index (Saccharomyces cerevisiae [1]; [4]): 0.526 ± 0.018 | protein stability index (Saccharomyces cerevisiae [1]; [5]): 0.415 ± 0.026 | protein stability index (Saccharomyces cerevisiae [1]; [6]): 0.565 ± 0.0086 | protein stability index (Saccharomyces cerevisiae [1]; [7]): 0.432 ± 0.0046 | protein stability index (Saccharomyces cerevisiae [1]; [8]): 0.407 ± 0.017 | protein stability index (Saccharomyces cerevisiae [1]; [9]): 0.541 ± 0.0073 | protein stability index (Saccharomyces cerevisiae [2]): 0.489 ± 0.0067

VWLFSWSVVGGT
protein stability index (Saccharomyces cerevisiae [1]; [3]): 0.436 ± 0.037 | protein stability index (Saccharomyces cerevisiae [1]; [4]): 0.5425 ± 0.0026 | protein stability index (Saccharomyces cerevisiae [1]; [5]): 0.369 ± 0.017 | protein stability index (Saccharomyces cerevisiae [1]; [6]): 0.523 ± 0.012 | protein stability index (Saccharomyces cerevisiae [1]; [7]): 0.369 ± 0.014 | protein stability index (Saccharomyces cerevisiae [1]; [8]): 0.376 ± 0.0048 | protein stability index (Saccharomyces cerevisiae [1]; [9]): 0.5069 ± 0.00074 | protein stability index (Saccharomyces cerevisiae [2]): 0.433 ± 0.02

LPAICFWCVLVG
protein stability index (Saccharomyces cerevisiae [1]; [3]): 0.0778 ± 0.014 | protein stability index (Saccharomyces cerevisiae [1]; [4]): 0.136 ± 0.00061 | protein stability index (Saccharomyces cerevisiae [1]; [5]): 0.164 ± 0.025 | protein stability index (Saccharomyces cerevisiae [1]; [6]): 0.273 ± 0.035 | protein stability index (Saccharomyces cerevisiae [1]; [7]): 0.133 ± 0.024 | protein stability index (Saccharomyces cerevisiae [1]; [8]): 0.162 ± 0.04 | protein stability index (Saccharomyces cerevisiae [1]; [9]): 0.21 ± 0.013 | protein stability index (Saccharomyces cerevisiae [2]): 0.201 ± 0.0059

CHSICLVILEFI
protein stability index (Saccharomyces cerevisiae [1]; [3]): 0.183 ± 0.0091 | protein stability index (Saccharomyces cerevisiae [1]; [4]): 0.338 ± 0.049 | protein stability index (Saccharomyces cerevisiae [1]; [5]): 0.25 ± 0.05 | protein stability index (Saccharomyces cerevisiae [1]; [6]): 0.436 ± 0.011 | protein stability index (Saccharomyces cerevisiae [1]; [7]): 0.183 ± 0.03 | protein stability index (Saccharomyces cerevisiae [1]; [8]): 0.198 ± 0.028 | protein stability index (Saccharomyces cerevisiae [1]; [9]): 0.384 ± 0.011 | protein stability index (Saccharomyces cerevisiae [2]): 0.274 ± 0.034

PRRVTVPGVPPL
protein stability index (Saccharomyces cerevisiae [1]; [3]): 0.672 ± 0.018 | protein stability index (Saccharomyces cerevisiae [1]; [4]): 0.736 ± 0.033 | protein stability index (Saccharomyces cerevisiae [1]; [5]): 0.669 ± 0.035 | protein stability index (Saccharomyces cerevisiae [1]; [6]): 0.737 ± 0.014 | protein stability index (Saccharomyces cerevisiae [1]; [7]): 0.643 ± 0.01 | protein stability index (Saccharomyces cerevisiae [1]; [8]): 0.66 ± 0.01 | protein stability index (Saccharomyces cerevisiae [1]; [9]): 0.7039 ± 0.0025 | protein stability index (Saccharomyces cerevisiae [2]): 0.71 ± 0.014

GAFAGDVWRCVV
protein stability index (Saccharomyces cerevisiae [1]; [3]): 0.627 ± 0.02 | protein stability index (Saccharomyces cerevisiae [1]; [4]): 0.755 ± 0.02 | protein stability index (Saccharomyces cerevisiae [1]; [5]): 0.653 ± 0.025 | protein stability index (Saccharomyces cerevisiae [1]; [6]): 0.778 ± 0.014 | protein stability index (Saccharomyces cerevisiae [1]; [7]): 0.154 ± 0.0073 | protein stability index (Saccharomyces cerevisiae [1]; [8]): 0.165 ± 0.026 | protein stability index (Saccharomyces cerevisiae [1]; [9]): 0.2682 ± 0.0021 | protein stability index (Saccharomyces cerevisiae [2]): 0.297 ± 0.024

QWTVRNQGVMQR
protein stability index (Saccharomyces cerevisiae [1]; [3]): 0.699 ± 0.018 | protein stability index (Saccharomyces cerevisiae [1]; [4]): 0.743 ± 0.0096 | protein stability index (Saccharomyces cerevisiae [1]; [5]): 0.652 ± 0.012 | protein stability index (Saccharomyces cerevisiae [1]; [6]): 0.754 ± 0.016 | protein stability index (Saccharomyces cerevisiae [1]; [7]): 0.65 ± 0.036 | protein stability index (Saccharomyces cerevisiae [1]; [8]): 0.681 ± 0.051 | protein stability index (Saccharomyces cerevisiae [1]; [9]): 0.721 ± 0.026 | protein stability index (Saccharomyces cerevisiae [2]): 0.73 ± 0.017

LWRRSLLLLRCC
protein stability index (Saccharomyces cerevisiae [1]; [3]): 0.0526 ± 0.0063 | protein stability index (Saccharomyces cerevisiae [1]; [4]): 0.0759 ± 0.04 | protein stability index (Saccharomyces cerevisiae [1]; [5]): 0.173 ± 0.029 | protein stability index (Saccharomyces cerevisiae [1]; [6]): 0.244 ± 0.015 | protein stability index (Saccharomyces cerevisiae [1]; [7]): 0.0637 ± 0.013 | protein stability index (Saccharomyces cerevisiae [1]; [8]): 0.0611 ± 0.0038 | protein stability index (Saccharomyces cerevisiae [1]; [9]): 0.0618 ± 0.0063 | protein stability index (Saccharomyces cerevisiae [2]): 0.0946 ± 0.013

CVVLCLFCWCML
protein stability index (Saccharomyces cerevisiae [1]; [3]): 0.358 ± 0.004 | protein stability index (Saccharomyces cerevisiae [1]; [4]): 0.4266 ± 0.0042 | protein stability index (Saccharomyces cerevisiae [1]; [5]): 0.314 ± 0.019 | protein stability index (Saccharomyces cerevisiae [1]; [6]): 0.451 ± 0.007 | protein stability index (Saccharomyces cerevisiae [1]; [7]): 0.32968 ± 0.00016 | protein stability index (Saccharomyces cerevisiae [1]; [8]): 0.305 ± 0.021 | protein stability index (Saccharomyces cerevisiae [1]; [9]): 0.425 ± 0.0082 | protein stability index (Saccharomyces cerevisiae [2]): 0.347 ± 0.048
